B3: CARD-9-CARD/AD (other, mouse)
chain: SPMLLPSGQISNQALALAPSSAPVLAQTMVPSSAMVPLAQPPAPAPVLTPGPPQSLSAPVPKSTQAGEGTLSEALLHLQFDADEDLGALLGNSTDPGVFTDLASVDNSEFQQLLNQGVSMSHSTAEPMLMEYPEAITRLVTGSQRPPDPAPTPLGTSGLPNGLSGDEDFSSIADMDFSALLSQISSMSDYENDDECWNVLEGFRVTLTSVIDPSRITPYLRQCKVLNPDDEEQVLSDPNLVIRKRKVGVLLDILQRTGHKGYVAFLESLELYYPQLYKKVTGKEPARVFSMIIDAS
B4: CARD-11-CARD fused to the NF-kB activation domain (pCMV-CARD-11/AD) (other, mouse)
chain: SPMLLPSGQISNQALALAPSSAPVLAQTMVPSSAMVPLAQPPAPAPVLTPGPPQSLSAPVPKSTQAGEGTLSEALLHLQFDADEDLGALLGNSTDPGVFTDLASVDNSEFQQLLNQGVSMSHSTAEPMLMEYPEAITRLVTGSQRPPDPAPTPLGTSGLPNGLSGDEDFSSIADMDFSALLSQISSEEDALWENVECNRHMLSRYINPAKLTPYLRQCKVIDEQDEDEVLNAPMLPSKINRAGRLLDILHTKGQRGYVVFLESLEFYYPELYKLVTGKE

The target in test [1] is Bcl-10 dominant negative deletion mutant (amino acids 1-104) (UniProt O95999). Description: cell-based or functional assay.
Test [2] concerns the target B4. Description: mammalian two-hybrid, 293T cells. Here is the method:
(§1) For the additional mammalian two-hybrid assays, 293T cells in 6-well plates (35-mm wells) were transfected with the following plasmids: 750 ng of pCMV-CARD-9/AD, 750 ng of pCMV-CARD/BD, 250 ng of pFR-Luc firefly reporter (Stratagene), and 250 ng of pRL-TK renilla reporter (Promega). For NF-?B assays, 293T cells were transfected with the following plasmids: 900 ng of pNF-kB luciferase reporter (Stratagene), 100 ng of pRL-TK renilla reporter (Promega) and 1000 ng of indicated expression plasmids. Cells were harvested 24 h after transfection, and firefly luciferase activity was determined using the Dual-Luciferase Reporter Assay System (Promega). In addition, renilla luciferase activity was determined and used to normalize transfection efficiencies.
(§2) To identify the binding partners of CARD-11, a mammalian two-hybrid analysis was performed using the CARD domains of 15 known proteins. For mammalian two-hybrid assays, 293T cells in 6-well plates (35-mm wells) were transfected with the following plasmids: 750 ng of pCMV-CARD-11/AD, 750 ng of pCMV-BD fused to individual CARD domains, 250 ng of pFR-Luc firefly reporter (Stratagene), and 250 ng of pRL-TK renilla reporter (Promega). pCMV-CARD-11 /AD and pCMV-CARD/BD plasmids were constructed by inserting individual CARD domains into pCMV-CARD/AD and pCMV-BD, respectively (Stratagene): Bcl-10 (residues 1-104), ARC (residues 1-110), RICK (residues 417-540), CARD-4 (residues 1-1 19), ASC (residues 92-195), caspase-I (residues 1-110), caspase-2 (residues 1-122), caspase-4 (residues 1-108), caspase-9 (residues 1-111), caspase-11 (residues 1-122), caspase-12 (residues 1-121), IAP-1 (residues 423-543), IAP-2 (residues 450-557), Apaf-1 (residues 1-108) and RAIDD (residues 1 -108). Cells were harvested 24 hours after transfection, and firefly luciferase activity was determined using the Dual-Luciferase Reporter Assay System (Promega). In addition, renilla luciferase activity was determined and used to normalize transfection efficiencies.

The target of test [3] is B3. Briefly: mammalian two-hybrid, 293T cells. Here is the method: as §1, §2
Test [4] concerns the target T1, Bcl-10-CARD/AD (mouse, UniProt Q04207 364-549; O95999 1-104).
T1 sequence (looked up): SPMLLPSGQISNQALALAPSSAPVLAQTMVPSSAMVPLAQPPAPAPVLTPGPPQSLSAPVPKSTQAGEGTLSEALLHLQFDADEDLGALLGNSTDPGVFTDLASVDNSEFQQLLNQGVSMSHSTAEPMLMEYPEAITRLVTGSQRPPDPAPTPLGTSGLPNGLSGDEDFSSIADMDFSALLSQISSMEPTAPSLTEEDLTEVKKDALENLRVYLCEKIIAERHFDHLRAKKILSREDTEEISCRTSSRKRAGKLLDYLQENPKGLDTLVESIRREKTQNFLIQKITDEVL
Briefly: cell-based or functional assay.

The target in test [5] is Bcl-10-CARD/BD (yeast, UniProt P04386 1-147; O95999 1-104, limits assumed). Description: cell-based or functional assay.
For test [6], the target named is T2, Myc-CARD-11/CC (human, UniProt Q9BXL7 129-449).
T2 construct: NOT the whole entry: only the coiled-coil region stood in the assay
T2 sequence: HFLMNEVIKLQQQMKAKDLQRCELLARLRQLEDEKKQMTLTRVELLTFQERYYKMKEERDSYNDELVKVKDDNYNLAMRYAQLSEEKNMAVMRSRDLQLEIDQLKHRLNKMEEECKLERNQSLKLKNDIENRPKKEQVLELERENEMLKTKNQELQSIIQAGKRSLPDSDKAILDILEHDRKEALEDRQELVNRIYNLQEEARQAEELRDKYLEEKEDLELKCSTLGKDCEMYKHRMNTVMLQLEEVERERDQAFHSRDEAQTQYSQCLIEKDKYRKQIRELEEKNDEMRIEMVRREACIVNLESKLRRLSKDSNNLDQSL
Description: co-immunoprecipitation from transfected 293T cells (anti-Flag IP, anti-Myc blot). The method, then:
The interaction between CARD-11 and Bcl-10 was next examined in cells by overexpressing CARD-11 is cells and performing co-immunoprecipitation assays. These assays were performed as follows. Plasmids expressing CARD-11 with C-terminal Myc epitopes were constructed using pCMV-Tag 5A (Stratagene Corp., La Jolla, Calif.). Constructs encoding epitope-tagged Bcl-10 were described previously (Srinivasula et al., […] J. Biol. Chem. 274:17946). 293T cells transfected with the plasmids were lysed in 50 mM Tris, pH 8.0, 120 mM NaCl, 1 mM EDTA, 0.5% Nonidet P-40 buffer and incubated with anti-Flag-M2 monoclonal antibody (Sigma Co.). The immune complexes were precipitated with protein G-Sepharose (Amersham Pharmacia Bio), washed extensively, and then subjected to SDS-polyacrylamide gel electrophoresis and immunoblotted with polyclonal anti-Myc antibodies (Santa Cruz Biotechnology, Inc.).

In test [1], “human CARD-10 (from UniProt Q9BWT7 1-1032)” gave an NF-κB activity (luciferase reporter) left with dominant negative Bcl-10 (times above background) of 10 and an NF-κB activity (luciferase reporter), reduction by dominant negative Bcl-10 of 35 fold.

In test [1], “human CARD-11 (from UniProt Q9BXL7 8-1154)” displayed an NF-κB activity (luciferase reporter) left with dominant negative Bcl-10 (times above background) of 1.7 and an NF-κB activity (luciferase reporter), reduction by dominant negative Bcl-10 of 4 fold.

B1: ASC CARD domain (residues 92-195) in pCMV-BD (other, UniProt P04386 1-147, looked up)
chain: MKLLSSIEQACDICRLKKLKCSKEKPKCAKCLKNNWECRYSPKTKRSPLTRAHLTEVESRLERLEQLFLLIFPREDLDMILKMDSLQDIKALLTGLFVQDNVNKDAVTDRLASVETDMPLTLRQHRISATSSSEESSNKGQRQLTVSGSGAAPAGIQAPPQSAAKPGLHFIDQHRAALIARVTNVEWLLDALYGKVLTDEQYQAVRAEPTNPSKMRKLFSFTPAWNWTCKDLLLQALRESQSYLVEDLERS
notes: range 1-147;range 92-195; Member of the two-hybrid CARD panel
Regarding B1, the binding result in test [2] and in test [3] was “no binding” throughout.

B2: CARD10-CARD/BD (other, yeast)
chain: MKLLSSIEQACDICRLKKLKCSKEKPKCAKCLKNNWECRYSPKTKRSPLTRAHLTEVESRLERLEQLFLLIFPREDLDMILKMDSLQDIKALLTGLFVQDNVNKDAVTDRLASVETDMPLTLRQHRISATSSSEESSNKGQRQLTVSMPGRAEAGEAEEEAGAGSGSEAEEDALWERIEGVRHRLARALNPAKLTPYLRQCRVIDEQDEEEVLSTYRFPCRVNRTGRLMDILRCRGKRGYEAFLEALEFYYPEHFTLLTGQEPAQRCSMILDEEGPEGLTQFLMT
B2: the “relative luciferase activity (mammalian two-hybrid reporter)” value (shortened to “relative luciferase activity”) in test [4] stood at 340 fold.

For B3, the “relative luciferase activity” value in test [5] is 250 fold.

Turning to B4, the “relative luciferase activity” value in test [5] is 17 fold.

B5: Flag-tagged Bcl-10 (other, UniProt O95999 1-233, looked up, not shown: small tags and cut ends)
chain: MEPTAPSLTEEDLTEVKKDALENLRVYLCEKIIAERHFDHLRAKKILSREDTEEISCRTSSRKRAGKLLDYLQENPKGLDTLVESIRREKTQNFLIQKITDEVLKLRNIKLEHLKGLKCSSCEPFPDGATNNLSRSNSDESNFSEKLRASTVMYHPEGESSTTPFFSTNSSLNLPVLEVGRTENTIFSSTTLPRPGDPGAPPLPPDLQLEEEGTCANSSEMFLPLRSRTVSRQ
notes: Expressed in 293T cells; also called Flag-Bcl-10
Take B5: the binding result in test [6] is on record as “no binding”.

B6: CARD-9-CARD/BD (other, yeast)
chain: MKLLSSIEQACDICRLKKLKCSKEKPKCAKCLKNNWECRYSPKTKRSPLTRAHLTEVESRLERLEQLFLLIFPREDLDMILKMDSLQDIKALLTGLFVQDNVNKDAVTDRLASVETDMPLTLRQHRISATSSSEESSNKGQRQLTVSMSDYENDDECWNVLEGFRVTLTSVIDPSRITPYLRQCKVLNPDDEEQVLSDPNLVIRKRKVGVLLDILQRTGHKGYVAFLESLELYYPQLYKKVTGKEPARVFSMIIDAS
For the molecule B6, in test [4], the “luciferase activity (mammalian two-hybrid reporter)” value stood at 75 fold.
